Measured values from article PMC4032492, “Molecular mechanism of Aurora A kinase autophosphorylation and its allosteric activation by TPX2” (eLife, 2014).
Changes are numbered by the printed parent chain. In names and notes the source's numbering stands. Each block holds one molecule with its values, some of them ahead of it.

Tests used:
[1] = molecular target: dephosphorylated Aurora A kinase 122-403 (human) (UniProt O14965); assay: AUC + other: SAXS; estimate from the concentration dependence of the dimer in AUC and SAXS; dimer to monomers
[2] = molecular target: dephosphorylated Aurora A kinase 122-403 (human) (UniProt O14965); assay: AUC; sedimentation velocity, 50,000 rpm, 18°C; 100-160 μM Aurora A + 500 μM AMPPCP, with or without 100 μM TPX2 1-25, kinase assay buffer; dimer to monomers
[3] = molecular target: dephosphorylated Aurora A kinase 122-403 (human) (UniProt O14965); assay: SAXS; Aurora A 0.33-6.6 mg/ml with 1 mg/mL TPX2 1-25, 500 μM AMPPCP, kinase assay buffer, 20°C; curves fitted with monomer and dimer of the X-ray structures
[4] = molecular target: T1, dephosphorylated Aurora A kinase 122-403 (human, UniProt O14965 122-403); assay: ITC
T1 chain: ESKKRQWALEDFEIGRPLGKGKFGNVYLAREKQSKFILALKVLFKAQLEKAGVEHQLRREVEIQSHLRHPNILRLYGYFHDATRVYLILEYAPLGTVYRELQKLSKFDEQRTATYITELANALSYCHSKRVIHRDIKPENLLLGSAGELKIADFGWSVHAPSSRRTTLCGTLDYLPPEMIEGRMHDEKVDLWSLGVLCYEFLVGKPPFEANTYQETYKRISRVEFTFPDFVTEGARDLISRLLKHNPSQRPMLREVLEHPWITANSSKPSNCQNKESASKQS

[5] = molecular target: T2, phosphorylated Aurora A kinase 122-403 (human, UniProt O14965 122-403, heavily phosphorylated (multiple sites, by autophosphorylation and E. coli kinases during expression); T288 in the activation loop phosphorylated); assay: ITC; phosphorylated Aurora A
T2 chain: T1 chain

Aurora A^122−403 T288V = molecular target: T3, Aurora A^122−403 T288V (human, UniProt O14965 122-403, T288V); assay: cell-based or functional assay
T3 sequence (looked up): T1 chain with T167V

[6] = molecular target: T4, dephosphorylated Aurora A kinase 122-403 (human, UniProt O14965 122-403); assay: ITC; Nano ITC, 1 μl injections every 180 s, 25°C; 20 mM TrisHCl, 200 mM NaCl, 3% glycerol, 1 mM TCEP, pH 7.50; independent fit model; Aurora A 13-90 μM, TPX2 250-940 μM; conditions: both partners purified
T4 construct: Aurora A kinase, human, residues 122-403, codon-optimized, completely dephosphorylated (confirmed by MS); Monomer and dimer are both seen in solution; also called deP Aurora A; deP Aurora A^122−403
T4 sequence (looked up): T1 chain

[7] = molecular target: the molecule itself; assay: AUC; sedimentation velocity, 50,000 rpm, 18°C; 100-160 μM Aurora A + 500 μM AMPPCP, with or without 100 μM TPX2 1-25, kinase assay buffer; dimer to monomers

Kd [1]: > 300000 nM
stoichiometry N [2]: 2
percent dimer [3]: 9%
Molecule: dephosphorylated Aurora A kinase 122-403 (from UniProt O14965 122-403) (domain or fragment)

KA from the dose-dependence of TPX2 1-147 on AP phosphorylation kinetics by 1 μM Aurora A T288V (Aurora A^122−403 T288V): 1 µM
Kd [5]: 2900 nM
Kd [6]: 1100 ± 100 nM
B1: TPX2^1−147 (Targeting Protein for Xklp2, residues 1-147) (domain or fragment, UniProt Q9ULW0 1-147, looked up)
chain: MSQVKSSYSYDAPSDFINFSSLDDEGDTQNIDSWFEEKANLENKLLGKNGTGGLFQGKTPLRKANLQQAIVTPLKPVDNTYYKEAEKENLVEQSIPSNACSSLEVEAAISRKTPAQPQRRSLRLSAQKDLEQKEKHHVKMKAKRCAT
notes: TPX2 (Targeting Protein for Xklp2), residues 1-147; also called longer TPX2 variant

Further lines, the molecule ahead of its results:

Molecule: MSQVKSSYSYDAPSDFINFSSLDDE [TPX2^1−25]
Kd [4]: 2000 nM
Kd [5]: 1800 nM

Molecule: MSQVKSSYSYDAPSDFINFSSLDDEGDTQNIDSWFEEKANLENKL [TPX2^1−45]
Kd [4]: 5000 nM
Kd [5]: 2000 nM

B2: Aurora A^125−392 D274A (domain or fragment, human, UniProt O14965 125-392, looked up)
chain: KRQWALEDFEIGRPLGKGKFGNVYLAREKQSKFILALKVLFKAQLEKAGVEHQLRREVEIQSHLRHPNILRLYGYFHDATRVYLILEYAPLGTVYRELQKLSKFDEQRTATYITELANALSYCHSKRVIHRDIKPENLLLGSAGELKIAAFGWSVHAPSSRRTTLCGTLDYLPPEMIEGRMHDEKVDLWSLGVLCYEFLVGKPPFEANTYQETYKRISRVEFTFPDFVTEGARDLISRLLKHNPSQRPMLREVLEHPWITANSSKPSN
notes: Aurora A kinase, human, residues 125-392, D274A; The purification of this mutant is not described on its own; also called kinase-dead Aurora A D274A; catalytically impaired D274A mutant; source: E. coli, purified (short 125-392 construct in pET28a)
stoichiometry N [7]: 2
